The chains are these.
B1: LINE1-full (parent)
chain: UACGUAGGUGGUUUUCCCCUGAUAGUGCUAAGGGGGCCUGGAAGUUUGGACUGGGCAGAGCUCAACACAGCGUGGCAAAGUGGCUGUGGCUAGACUGCCUCUCUGGAUUCCUCGUCACUCAGCAGGGCAUCUCUGAGAGAAAUGCC

The data set covers variants of B1. In words: self-cleavage, relative activity (ratio to wild type); higher = more cleavage; in vitro, sequencing; the parent is a self-cleaving ribozyme.
In the case of U81C A142C, the self-cleavage was determined as 1.18.

In the case of U81C A142G, the self-cleavage was determined as 1.38.

Regarding G82A U87C, the self-cleavage stood at 0.17.

For the variant G83A A138G, the self-cleavage turned out to be 0.73.

In the case of G83A U119A, the self-cleavage was 0.85.

Regarding G83A U119C, the self-cleavage came out at 1.51.

Regarding U81A A124C, the self-cleavage stood at 2.45.

U81A A124G: the self-cleavage came out at 1.55.

U81C U87C: the self-cleavage is 0.4.

U81C A92U: the self-cleavage was 0.95.

As to U81C A92G, the self-cleavage came out at 0.

On to G83U A124G, for which the self-cleavage was determined as 0.36.

Turning to G82A G114U, the self-cleavage is 2.07.

Turning to U81C U112A, the self-cleavage is 1.42.

G80C U132C: the self-cleavage is 1.84.

On to U81A U85A, for which the self-cleavage was found to be 0.09.

With G82U U134G, the self-cleavage was determined as 1.3.

With G80U U130C, the self-cleavage turned out to be 0.

As to U81C U130G, the self-cleavage turned out to be 1.84.

Turning to G82A G126U, the self-cleavage came to 2.04.

Turning to G82A A138G, the self-cleavage amounted to 2.26.

Consider G82A A138U, for which the self-cleavage was 1.9.

Take U81C: the self-cleavage came out at 1.37.

For U81A, the self-cleavage was found to be 1.89.

As to U81G, the self-cleavage came out at 1.32.

Consider U81C A140G, for which the self-cleavage was determined as 1.07.

Consider U81A G127A, for which the self-cleavage was 1.72.

U81A C145A: the self-cleavage came to 2.25.

G80U A141U: the self-cleavage stood at 1.68.

Turning to G80U A141G, the self-cleavage worked out at 1.1.

On to U81A U134A, for which the self-cleavage was determined as 2.49.

As for U81A U134G, the self-cleavage is 0.65.

For U81A C103U, the self-cleavage is 0.63.

For the variant U81A C103A, the self-cleavage stood at 1.98.

As to G80C U108C, the self-cleavage was 0.

For the variant U81C A138G, the self-cleavage was 1.14.

Turning to G82U A92U, the self-cleavage turned out to be 0.43.

As for U81A G83U, the self-cleavage came to 1.3.

For G82U A141G, the self-cleavage was found to be 1.54.

Regarding G82A G86U, the self-cleavage was determined as 0.1.

As to G83U A117U, the self-cleavage stood at 1.21.

As to U81A G126U, the self-cleavage turned out to be 2.04.

As for U81C A117G, the self-cleavage was found to be 1.21.

Consider G83A G97C, for which the self-cleavage stood at 0.18.

For U81C A107G, the self-cleavage came out at 1.21.

For G82U U102C, the self-cleavage is 1.45.

U81A C120A: the self-cleavage amounted to 2.51.

Take U81A C120U: the self-cleavage amounted to 0.99.

With U81G U87A, the self-cleavage was 0.15.

For U81A A141G, the self-cleavage was determined as 1.85.

As for U81A C146U, the self-cleavage was 1.56.

As to U81C G86U, the self-cleavage was determined as 0.13.

On to G82A U102A, for which the self-cleavage was found to be 2.12.

As for G80U U102A, the self-cleavage was 1.34.

With U81A A138G, the self-cleavage worked out at 2.16.

As to U81A A138C, the self-cleavage amounted to 2.3.

On to U81G U100C, for which the self-cleavage came to 1.43.

Turning to G80U G144A, the self-cleavage turned out to be 1.57.

For the variant G83A A107G, the self-cleavage is 0.91.

Regarding G80A G144A, the self-cleavage is 1.66.

Turning to G82A U108C, the self-cleavage was determined as 2.48.

On to U81A U91C, for which the self-cleavage was found to be 0.77.

Turning to G82C U119A, the self-cleavage was found to be 2.14.

Consider G83U A142G, for which the self-cleavage came out at 0.44.

On to U81C C133A, for which the self-cleavage came out at 0.9.

As for G82U U143C, the self-cleavage amounted to 1.72.

Take U81G A140G: the self-cleavage is 1.4.

For G83A U91C, the self-cleavage is 0.24.

For G80A A140U, the self-cleavage is 1.58.

As to G83A A121G, the self-cleavage turned out to be 0.98.

For U81A U132C, the self-cleavage was 2.25.

Consider U81A U132A, for which the self-cleavage came out at 1.7.

With U81C A129U, the self-cleavage came to 1.48.

In the case of U81C U85A, the self-cleavage worked out at 0.16.

For the variant U81G U104A, the self-cleavage came to 1.23.

Consider U81G A107G, for which the self-cleavage came out at 1.01.

Consider G82A U132C, for which the self-cleavage is 2.22.

G80A U81C: the self-cleavage stood at 1.98.

As to U81A U112A, the self-cleavage was determined as 1.7.

U81C U102C: the self-cleavage was found to be 0.72.

Take U81C U102A: the self-cleavage turned out to be 1.05.

U81G U119C: the self-cleavage came to 1.54.

As for G83A U108C, the self-cleavage stood at 0.56.

U81A A117G: the self-cleavage came out at 2.29.

Regarding U81A A117U, the self-cleavage was determined as 1.94.

On to G80C, for which the self-cleavage came to 1.4.

As for G80U, the self-cleavage was determined as 1.36.

Consider G82A A94U, for which the self-cleavage was found to be 0.33.

With G83A U143C, the self-cleavage was determined as 0.71.

With G82A G105A, the self-cleavage stood at 1.95.

Turning to U81C U108C, the self-cleavage is 1.95.

As for U81C C95A, the self-cleavage came to 0.03.

For U81C C128U, the self-cleavage was determined as 1.19.

Turning to U81A C133U, the self-cleavage is 1.95.

Regarding G80U U109C, the self-cleavage amounted to 1.21.

Turning to G83C A117G, the self-cleavage came to 0.76.

In the case of U81C G83A, the self-cleavage worked out at 1.46.

In the case of G82U U115C, the self-cleavage came out at 0.84.

As to G82A A107G, the self-cleavage was found to be 1.73.

Consider U81G A136G, for which the self-cleavage came out at 1.65.

Consider G82A A124G, for which the self-cleavage amounted to 1.3.

In the case of G83U U85A, the self-cleavage was found to be 0.07.

For the variant G80A U91A, the self-cleavage was 0.76.

As to U81C C116A, the self-cleavage turned out to be 0.59.

In the case of U81C C116U, the self-cleavage is 1.14.

On to U81A U96A, for which the self-cleavage came to 0.07.

As for U81A U96C, the self-cleavage was 0.13.

G82A U96A: the self-cleavage came to 0.05.

In the case of U81G U134A, the self-cleavage was 1.

Consider G80A U104A, for which the self-cleavage was found to be 1.86.

U81G A117U: the self-cleavage was determined as 1.32.

Turning to G83A, the self-cleavage is 0.86.

For the variant G83U, the self-cleavage came out at 0.86.

As to G83C, the self-cleavage amounted to 0.87.

Regarding U81G A92G, the self-cleavage was determined as 0.24.

On to U81A G89A, for which the self-cleavage was determined as 0.

On to U81A A142G, for which the self-cleavage was 2.07.

U81C A136G: the self-cleavage was determined as 1.12.

For the variant U81C U132C, the self-cleavage stood at 1.61.

With G80A U96C, the self-cleavage was 0.18.

With G83A U112C, the self-cleavage is 0.54.

For U81A U100A, the self-cleavage stood at 2.09.

As for G83C A94G, the self-cleavage worked out at 0.17.

As to U81C U115C, the self-cleavage was 1.39.

With U81C U115A, the self-cleavage came to 1.44.

In the case of U81C U115G, the self-cleavage was determined as 1.1.

With U81C G127U, the self-cleavage came to 1.22.

U81A U119C: the self-cleavage worked out at 2.53.

Regarding U81A U119A, the self-cleavage was 2.53.

Consider U81C A94U, for which the self-cleavage was 0.37.

With U81C A94G, the self-cleavage stood at 0.37.

On to U81C A94C, for which the self-cleavage came to 0.

Regarding U81A G88A, the self-cleavage was 0.06.

Turning to U81C U143A, the self-cleavage amounted to 1.22.

With U81C U100A, the self-cleavage stood at 1.05.

In the case of U81A A136U, the self-cleavage came to 2.35.

Take U81A A136G: the self-cleavage was 1.9.

For G80U U100C, the self-cleavage was determined as 1.02.

Consider G82A A140G, for which the self-cleavage stood at 0.93.

Take G83A A136G: the self-cleavage was 1.05.

Take U81A U115C: the self-cleavage was 2.44.

On to U81A U115A, for which the self-cleavage is 2.46.

Take G80U U87C: the self-cleavage was 0.2.

Consider G80U U87A, for which the self-cleavage stood at 0.08.

Turning to G80C A107G, the self-cleavage was 1.52.

Consider G83A U85G, for which the self-cleavage is 0.1.

On to G83A U85C, for which the self-cleavage stood at 0.09.

As for U81G A129G, the self-cleavage worked out at 1.48.

U81C C90U: the self-cleavage came out at 0.03.

For G80C U96G, the self-cleavage was 0.09.

In the case of G83A A94U, the self-cleavage was 0.24.

For the variant U81C U119A, the self-cleavage came to 1.59.

Consider G83A U130A, for which the self-cleavage worked out at 0.99.

For the variant U81A A129U, the self-cleavage worked out at 2.57.

Consider U81A U143C, for which the self-cleavage stood at 1.95.

Consider G82A U143C, for which the self-cleavage was 2.03.

Consider G82A U119A, for which the self-cleavage came out at 1.96.

Consider U81C G105A, for which the self-cleavage was determined as 1.06.

Take G82A C84U: the self-cleavage amounted to 0.51.

For G83A U104C, the self-cleavage came to 0.95.

U81A U130C: the self-cleavage was found to be 2.43.

In the case of G82A U130A, the self-cleavage worked out at 1.97.

As for U81C G122U, the self-cleavage was determined as 1.14.

Consider U81C A121G, for which the self-cleavage came out at 1.38.

On to U81C U104A, for which the self-cleavage was determined as 1.07.

For G83A U115C, the self-cleavage worked out at 1.47.

Turning to U81A U109C, the self-cleavage was 1.98.

Source of the values: the RNAGym collection of RNA variant scans (doi:10.7554/elife.90254).
